Assay results: patent US20260209386A1 (MYTHIC THERAPEUTICS, published 2026)

T1: Human PTK7 Protein, His Tag, Acro Biosystems (human, UniProt Q13308 31-704)
T1 construct: Bought recombinant protein; also called CCK4; not shown: His tag
T1 sequence: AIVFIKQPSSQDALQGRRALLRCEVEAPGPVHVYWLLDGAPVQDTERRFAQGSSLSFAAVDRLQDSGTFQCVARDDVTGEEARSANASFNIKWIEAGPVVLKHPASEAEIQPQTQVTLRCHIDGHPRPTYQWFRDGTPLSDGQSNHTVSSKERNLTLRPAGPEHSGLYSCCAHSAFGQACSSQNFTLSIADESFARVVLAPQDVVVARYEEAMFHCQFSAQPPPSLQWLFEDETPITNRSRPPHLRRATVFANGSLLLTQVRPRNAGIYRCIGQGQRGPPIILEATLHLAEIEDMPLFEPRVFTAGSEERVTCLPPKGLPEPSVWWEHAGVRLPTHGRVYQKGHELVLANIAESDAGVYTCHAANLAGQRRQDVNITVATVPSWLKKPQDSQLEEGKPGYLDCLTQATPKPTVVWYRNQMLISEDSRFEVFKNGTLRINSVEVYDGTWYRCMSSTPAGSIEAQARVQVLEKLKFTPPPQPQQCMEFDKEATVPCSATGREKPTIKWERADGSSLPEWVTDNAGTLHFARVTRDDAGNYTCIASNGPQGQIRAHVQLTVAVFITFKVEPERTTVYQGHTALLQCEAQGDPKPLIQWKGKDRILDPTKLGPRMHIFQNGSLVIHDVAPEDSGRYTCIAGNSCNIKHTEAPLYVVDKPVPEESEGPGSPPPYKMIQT


Biological target: T1, Human PTK7 Protein, His Tag, Acro …
Assay: BLI (Octet), antibody on anti-human Fc sensor, 50 nM PTK7 at pH 7.4, dissociation at pH 7.4 or 5.4; 1 = pH dependent binding relative to parent

| Binder | binding result |
| --- | --- |
| MYT10927 (antibody, V domains shown, MYT9345 variant, His at VL pos 32 (L1 09)) VH: EVQLVESGGGLVQPGGSLRLSCTASGFSLSNYVMNWVRQAPGKGLEWVGIIDSSGSTYYASWAKGRFTISRDTSKNTVYLQMNSLRAEDTAVYFCARGLYLWGQGTLVTVSS VL: EIVMTQSPSTLSASVGDRVIITCQSSQSVYNHNLLAWYQQKPGKAPKLLIYYTSNLASGVPSRFSGSGSGAEFTLTISSLQPDDFATYYCQGGYNGNIYAFGQGTKLTVL | binds |
| MYT10943 (antibody, V domains shown, MYT9345 variant, substitution at VL pos 95 (L3 05), no Ala mark) VH: EVQLVESGGGLVQPGGSLRLSCTASGFSLSNYVMNWVRQAPGKGLEWVGIIDSSGSTYYASWAKGRFTISRDTSKNTVYLQMNSLRAEDTAVYFCARGLYLWGQGTLVTVSS VL: EIVMTQSPSTLSASVGDRVIITCQSSQSVYNNNLLAWYQQKPGKAPKLLIYYTSNLASGVPSRFSGSGSGAEFTLTISSLQPDDFATYYCQGGYHGNIYAFGQGTKLTVL | binds |
| MYT10926 (antibody, V domains shown, MYT9345 variant, His at VL pos 31 (L1 08)) VH: EVQLVESGGGLVQPGGSLRLSCTASGFSLSNYVMNWVRQAPGKGLEWVGIIDSSGSTYYASWAKGRFTISRDTSKNTVYLQMNSLRAEDTAVYFCARGLYLWGQGTLVTVSS VL: EIVMTQSPSTLSASVGDRVIITCQSSQSVYHNNLLAWYQQKPGKAPKLLIYYTSNLASGVPSRFSGSGSGAEFTLTISSLQPDDFATYYCQGGYNGNIYAFGQGTKLTVL | binds |
| MYT10925 (antibody, V domains shown, MYT9345 variant, His at VL pos 30 (L1 07)) VH: EVQLVESGGGLVQPGGSLRLSCTASGFSLSNYVMNWVRQAPGKGLEWVGIIDSSGSTYYASWAKGRFTISRDTSKNTVYLQMNSLRAEDTAVYFCARGLYLWGQGTLVTVSS VL: EIVMTQSPSTLSASVGDRVIITCQSSQSVHNNNLLAWYQQKPGKAPKLLIYYTSNLASGVPSRFSGSGSGAEFTLTISSLQPDDFATYYCQGGYNGNIYAFGQGTKLTVL | binds |
| MYT10937 (antibody, V domains shown, MYT9345 variant, His at VL pos 57 (L2 06)) VH: EVQLVESGGGLVQPGGSLRLSCTASGFSLSNYVMNWVRQAPGKGLEWVGIIDSSGSTYYASWAKGRFTISRDTSKNTVYLQMNSLRAEDTAVYFCARGLYLWGQGTLVTVSS VL: EIVMTQSPSTLSASVGDRVIITCQSSQSVYNNNLLAWYQQKPGKAPKLLIYYTSNLHSGVPSRFSGSGSGAEFTLTISSLQPDDFATYYCQGGYNGNIYAFGQGTKLTVL | binds |
| MYT10939 (antibody, V domains shown, MYT9345 variant, His at VL pos 91 (L3 01)) VH: EVQLVESGGGLVQPGGSLRLSCTASGFSLSNYVMNWVRQAPGKGLEWVGIIDSSGSTYYASWAKGRFTISRDTSKNTVYLQMNSLRAEDTAVYFCARGLYLWGQGTLVTVSS VL: EIVMTQSPSTLSASVGDRVIITCQSSQSVYNNNLLAWYQQKPGKAPKLLIYYTSNLASGVPSRFSGSGSGAEFTLTISSLQPDDFATYYCHGGYNGNIYAFGQGTKLTVL | binds |
| MYT10944 (antibody, V domains shown, MYT9345 variant, His at VL pos 96 (L3 06)) VH: EVQLVESGGGLVQPGGSLRLSCTASGFSLSNYVMNWVRQAPGKGLEWVGIIDSSGSTYYASWAKGRFTISRDTSKNTVYLQMNSLRAEDTAVYFCARGLYLWGQGTLVTVSS VL: EIVMTQSPSTLSASVGDRVIITCQSSQSVYNNNLLAWYQQKPGKAPKLLIYYTSNLASGVPSRFSGSGSGAEFTLTISSLQPDDFATYYCQGGYNHNIYAFGQGTKLTVL | binds |
| MYT10930 (antibody, V domains shown, MYT9345 variant, His at VL pos 35 (L1 12)) VH: EVQLVESGGGLVQPGGSLRLSCTASGFSLSNYVMNWVRQAPGKGLEWVGIIDSSGSTYYASWAKGRFTISRDTSKNTVYLQMNSLRAEDTAVYFCARGLYLWGQGTLVTVSS VL: EIVMTQSPSTLSASVGDRVIITCQSSQSVYNNNLHAWYQQKPGKAPKLLIYYTSNLASGVPSRFSGSGSGAEFTLTISSLQPDDFATYYCQGGYNGNIYAFGQGTKLTVL | binds |

Further lines, results first:

| binding result | Binder |
| --- | --- |
| binds | MYT10920 (antibody, V domains shown, MYT9345 variant, His at VL pos 25 (L1 02)) VH: EVQLVESGGGLVQPGGSLRLSCTASGFSLSNYVMNWVRQAPGKGLEWVGIIDSSGSTYYASWAKGRFTISRDTSKNTVYLQMNSLRAEDTAVYFCARGLYLWGQGTLVTVSS VL: EIVMTQSPSTLSASVGDRVIITCQHSQSVYNNNLLAWYQQKPGKAPKLLIYYTSNLASGVPSRFSGSGSGAEFTLTISSLQPDDFATYYCQGGYNGNIYAFGQGTKLTVL |
| binds | MYT10946 (antibody, V domains shown, MYT9345 variant, His at VL pos 98 (L3 08)) VH: EVQLVESGGGLVQPGGSLRLSCTASGFSLSNYVMNWVRQAPGKGLEWVGIIDSSGSTYYASWAKGRFTISRDTSKNTVYLQMNSLRAEDTAVYFCARGLYLWGQGTLVTVSS VL: EIVMTQSPSTLSASVGDRVIITCQSSQSVYNNNLLAWYQQKPGKAPKLLIYYTSNLASGVPSRFSGSGSGAEFTLTISSLQPDDFATYYCQGGYNGNHYAFGQGTKLTVL |
| binds | MYT10936 (antibody, V domains shown, MYT9345 variant, His at VL pos 56 (L2 05)) VH: EVQLVESGGGLVQPGGSLRLSCTASGFSLSNYVMNWVRQAPGKGLEWVGIIDSSGSTYYASWAKGRFTISRDTSKNTVYLQMNSLRAEDTAVYFCARGLYLWGQGTLVTVSS VL: EIVMTQSPSTLSASVGDRVIITCQSSQSVYNNNLLAWYQQKPGKAPKLLIYYTSNHASGVPSRFSGSGSGAEFTLTISSLQPDDFATYYCQGGYNGNIYAFGQGTKLTVL |
| binds | MYT10950 (antibody, V domains shown, MYT9345 variant, Ala at VL pos 95 (L3 05)) VH: EVQLVESGGGLVQPGGSLRLSCTASGFSLSNYVMNWVRQAPGKGLEWVGIIDSSGSTYYASWAKGRFTISRDTSKNTVYLQMNSLRAEDTAVYFCARGLYLWGQGTLVTVSS VL: EIVMTQSPSTLSASVGDRVIITCQSSQSVYNNNLLAWYQQKPGKAPKLLIYYTSNLASGVPSRFSGSGSGAEFTLTISSLQPDDFATYYCQGGYAGNIYAFGQGTKLTVL |
| binds | MYT10935 (antibody, V domains shown, MYT9345 variant, His at VL pos 55 (L2 04)) VH: EVQLVESGGGLVQPGGSLRLSCTASGFSLSNYVMNWVRQAPGKGLEWVGIIDSSGSTYYASWAKGRFTISRDTSKNTVYLQMNSLRAEDTAVYFCARGLYLWGQGTLVTVSS VL: EIVMTQSPSTLSASVGDRVIITCQSSQSVYNNNLLAWYQQKPGKAPKLLIYYTSHLASGVPSRFSGSGSGAEFTLTISSLQPDDFATYYCQGGYNGNIYAFGQGTKLTVL |
| binds | MYT10949 (antibody, V domains shown, MYT9345 LC variant; substitution position printed as n/a) VH: EVQLVESGGGLVQPGGSLRLSCTASGFSLSNYVMNWVRQAPGKGLEWVGIIDSSGSTYYASWAKGRFTISRDTSKNTVYLQMNSLRAEDTAVYFCARGLYLWGQGTLVTVSS VL: EIVMTQSPSTLSASVGDRVIITCQSSQSVYNNNLLAWYQQKPGKAPKLLIYYTSNLASGVPSRFSGSGSGAEFTLTISSLQPDDFATYYCQGGYNGNIYAFGQGTKLEIK |
| binds | MYT10942 (antibody, V domains shown, MYT9345 variant, His at VL pos 94 (L3 04)) VH: EVQLVESGGGLVQPGGSLRLSCTASGFSLSNYVMNWVRQAPGKGLEWVGIIDSSGSTYYASWAKGRFTISRDTSKNTVYLQMNSLRAEDTAVYFCARGLYLWGQGTLVTVSS VL: EIVMTQSPSTLSASVGDRVIITCQSSQSVYNNNLLAWYQQKPGKAPKLLIYYTSNLASGVPSRFSGSGSGAEFTLTISSLQPDDFATYYCQGGHNGNIYAFGQGTKLTVL |
| binds | MYT10928 (antibody, V domains shown, MYT9345 variant, His at VL pos 33 (L1 10)) VH: EVQLVESGGGLVQPGGSLRLSCTASGFSLSNYVMNWVRQAPGKGLEWVGIIDSSGSTYYASWAKGRFTISRDTSKNTVYLQMNSLRAEDTAVYFCARGLYLWGQGTLVTVSS VL: EIVMTQSPSTLSASVGDRVIITCQSSQSVYNNHLLAWYQQKPGKAPKLLIYYTSNLASGVPSRFSGSGSGAEFTLTISSLQPDDFATYYCQGGYNGNIYAFGQGTKLTVL |
